From patent US20190336574A1 (TRUSTEES OF PRINCETON UNIVERSITY, published 2019)
Where a chain is given by its changes, count along the chain named.

How the values were obtained:
murine SND1, wild type = biological target: T1, murine SND1, wild type (mouse, UniProt Q78PY7 1-910); assay: anti-MTDH co-IP from PyMT;Mtdh-/- tumor cells reconstituted with murine MTDH, western blot
T1 construct: Endogenous protein of murine PyMT mammary tumor cells; also called SND1 (in PyMT tumor cells); WT shRNA-resistant murine SND1
T1 sequence (looked up): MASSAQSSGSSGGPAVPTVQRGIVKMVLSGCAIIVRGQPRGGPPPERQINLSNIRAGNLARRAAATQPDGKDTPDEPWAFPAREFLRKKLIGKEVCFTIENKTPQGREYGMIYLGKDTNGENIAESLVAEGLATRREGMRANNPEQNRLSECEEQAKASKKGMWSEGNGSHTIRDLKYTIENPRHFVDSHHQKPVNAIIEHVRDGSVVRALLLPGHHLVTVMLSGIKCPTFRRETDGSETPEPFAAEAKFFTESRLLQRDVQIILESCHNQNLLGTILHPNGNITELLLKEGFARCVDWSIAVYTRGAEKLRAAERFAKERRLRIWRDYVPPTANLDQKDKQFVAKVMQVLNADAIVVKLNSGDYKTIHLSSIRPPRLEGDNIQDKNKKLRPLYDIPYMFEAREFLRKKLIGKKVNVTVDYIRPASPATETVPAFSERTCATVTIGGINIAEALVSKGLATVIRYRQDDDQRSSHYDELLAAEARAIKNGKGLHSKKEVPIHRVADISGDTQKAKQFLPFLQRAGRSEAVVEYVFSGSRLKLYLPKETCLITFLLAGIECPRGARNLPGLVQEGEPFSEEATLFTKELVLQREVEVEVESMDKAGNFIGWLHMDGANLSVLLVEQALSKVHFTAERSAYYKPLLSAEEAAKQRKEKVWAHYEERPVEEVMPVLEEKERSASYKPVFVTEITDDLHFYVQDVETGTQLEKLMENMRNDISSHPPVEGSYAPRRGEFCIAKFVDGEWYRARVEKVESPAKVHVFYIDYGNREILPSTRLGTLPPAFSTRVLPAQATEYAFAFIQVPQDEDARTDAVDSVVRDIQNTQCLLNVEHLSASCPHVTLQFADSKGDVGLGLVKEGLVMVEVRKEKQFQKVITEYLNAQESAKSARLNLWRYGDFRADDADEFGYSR
Procedure: (FIG. 23A) Lysates from PyMT;Mtdh−/− tumor cells reconstituted with vector control, WT or mutant murine MTDH were immunoprecipitated with anti-MTDH antibody and immunoblotted for indicated proteins. Note all amino acid annotations are based on human MTDH. W394 and W401 of human MTDH correspond to W391 and W398 in murine MTDH, respectively. (FIG. 23B) Mammosphere assays were performed with PyMT;Mtdh−/− tumor cells reconstituted with indicated MTDH constructs. (FIG. 23C-E) In vivo tumor formation (FIG. 23C for tumor incidence; FIG. 23D, FIG. 23E for tumor volumes) were performed at limiting numbers using PyMT;Mtdh−/− tumor cells reconstituted with indicated WT or mutant MTDH. Statistics: (FIG. 23B) Student's t-test. Data represent mean±SEM. (FIG. 23C) Limiting dilution analysis. (FIG. 23D, FIG. 23E) Mann-Whitney test. **p<0.01, *p<0.05.
Immunoprecipitation and western blot: For in vivo immunoprecipitation (IP) experiments, cultured cells were washed in cold PBS and lysed in lysis buffer (20 mM Tris pH 7.4, 0.15 M NaCl, 1 mM EDTA, 1 mM EGTA, 1% Tx-100, 0.0025 M Na2P2O7, 1 mM β-glycerolphosphate, 1 mM Na3VO4, and 1 mM NaF) with an EDTA-free protease inhibitor mixture (Roche Applied Science) and PMSF. Cell lysates were then incubated on ice for 10 min, centrifuged, and precleared by incubating with protein A/G beads (Santa Cruz Biotechnology) for 1 h at 4° C. […]

[1] = biological target: T2, murine SND1 R255E (shRNA-resistant construct) (mouse, UniProt Q78PY7 1-910); assay: co-IP (anti-MTDH) from SND1-KD PyMT;Mtdh+/+ tumor cells reconstituted with SND1 constructs, western blot
T2 sequence (looked up): T1 sequence (looked up) with R255E

[2] = biological target: T3, murine SND1 F250A (shRNA-resistant construct) (mouse, UniProt Q78PY7 1-910); assay: as above
T3 sequence (looked up): T1 sequence (looked up) with F250A

B1: murine MTDH, wild type (other, mouse, UniProt Q80WJ7 1-579, looked up)
chain: MAARSWQDELAQQAEEGSARLRELLSVGLGFLRTELGLDLGLEPKRYPGWVILVGTGALGLLLLFLLGYGWAAACAGARKKRRSPPRKREEAAPPTPAPDDLAQLKNLRSEEQKKKNRKKLPEKPKPNGRTVEVPEDEVVRNPRSITAKQAPETDKKNEKSKKNKKKSKSDAKAVQNSSRHDGKEVDEGAWETKISHREKRQQRKRDKVLTDSGSLDSTIPGIENIITVTTEQLTTASFPVGSKKNKGDSHLNVQVSNFKSGKGDSTLQVSSRLNENLTVNGGGWSEKSVKLSSQLSEEKWNSVPPASAGKRKTEPSAWTQDTGDTNANGKDWGRNWSDRSIFSGIGSTAEPVSQSTTSDYQWDVSRNQPYIDDEWSGLNGLSSADPSSDWNAPAEEWGNWVDEDRASLLKSQEPISNDQKVSDDDKEKGEGALPTGKSKKKKKKKKKQGEDNSHTQDTEDLEKDTREELPVNTSKARPKQEKACSLKTMSTSDPAEVLIKNSQPVKTLPPAISAEPSITLSKGDSDNSSSQVPPMLQDTDKPKSNAKQNSVPPSQTKSETNWESPKQIKKKKKARRET
notes: Re-expressed by lentivirus in PyMT;Mtdh-/- tumor cells; also used for the endogenous protein of PyMT;Mtdh+/+ cells (same protein); also called mouse MTDH; WT MTDH (murine form)
Q: Does B1 bind (murine SND1, wild type)?
A: Result: binds

Q: Does B1 bind [1]?
A: Result: no binding

Q: Does B1 bind [2]?
A: Result: no binding
